Measured values taken from patent US20260204353A1.
pEC50: −log10 of the molar value.

Biological target: - (UniProt P08069)
Assay: ELISA
Settings: scFv

Substance: Teprotumumab scFv mutant into which the consensus sequences were introduced (H16G, L60D, and L85D)
- pEC50: 7.62
